# Results from US20250289871A1.
# B1: RQ43-GL-H-LO1 (TM-YTE) (antibody, V domains shown)
# VH: EVQLVESGGGLVQPGRSLRLSCAASGFPFDDYAIHWVRLAPGKGLEWVSSISWDSGSIGYADSVKGRFTISRDNAKNSLYLQMNSLRAEDTALYYCAKGAFPGYSSGWYYGLEVWGQGTTVTVSS
# VL: QSVVTQPPSASGSLGQSVTISCTGTSSDVGGYNYVSWYQQHPGKAPKLMIFEVSKRPSGVPDRFSGSKSGNTASLTVSGLQAEDEADYYCSSYAGNKGVFGGGTKLTVL
# Molecular target: SARS-CoV-2 Delta + T51I + T95I spike protein (authentic virus) (SARS-CoV-2), P0DTC2
# Experiment: cell-based or functional assay
binder,measurement,value
B1,Authentic Virus Neutralization IC50,0.021 µg/mL
